Results taken from the DeepSol protein solubility set.

assay: soluble on expression in E. coli; label from the status in PepcDB or PDB records

| Sequence | soluble on expression in E. coli |
| --- | --- |
| MSLNQLLFVPLGGIGEIGMNLALYGYGPEHAREWIAVDVGISFAGADFPGVDLVFPDIRFIEELGDKLKGIVITHAHEDHYGALLDLWPKMKVPVYATAFTAAMLAAKREGEPGAPKIPVTQFSAGDRFKVGPFEIEAINVTHSIPEPVALAIRSPAGTVVHTGDWKIDPTPALGAPTDEKRLREIGDEGVLAMICDSTNALREGVSPSESEVSASLGEIIRGAKGRVAVTTFSSNVGRIRSIAAAARDAGRQVLLMGRSMRRVVDVSTELGYMDGIPPFLGEQDFGYIPPEKAVIILTGSQGETRAALARLSRDEHPTVALSQGDLVIFSSRAIPGNEKLIIDIKNALIERGVQILEDGEKLVHVSGHPRRSEMRQMYEWVRPTIAVPAHGEAAHLSAHAKLARELGVKQVVPARNGKMVQLSPGAASVIADVPVGRLFKDEGHHHHHH | soluble |
| MKRQLFTVLVCMTMFAVASCGEKKGKDKFEERIEKAKESVEDVVDDAKDQIEDKADEVGETLDKAKSKIEKAKKKLDEANRD | not soluble |
| MMFVKNNFNTNNFDAELVEAIGNRLENNQFSDAILAGTKYLTTLLREKGQCEGDGAQLVGTVLGGQSPRIQINSLQSVSEQDEQRGFEALLRGYYQCIRNPRTHDNFPDTEDSCMRILIMLDTFIKYLKRDVAEFDYTAILERIYEVHFVNNSDYAEALISQIPEKKLLDFFQSLISRFNERPTKEIDSIFKAINQRFSGEEEKAAMRLLGDELRKASNNVEFANVFRIIKPSAWRNLPDDVLIRMENIIIEECKKGYLDFYSDATKGAIGTWGNTFGSKFKRRGDLGDALIGLLYDSWYTQNYVAKYYVFSIPSIITDDVKVKELADALAYATIVNGAKLLRTKLIDACKNYPDKLKEHLRDAVQQRMDSDKKYAEELLGQIS | not soluble |
| QVQLQQPGAELVKPGTSVKLSCKASGYNFTSYWINWVKLRPGQGLEWIGDIYPGSGITNYNEKFKSKATLTVDTSSSTAYMQLSSLASEDSALYYCAGQYGNLWFAYWGQGTLVTVS | soluble |
| MESCITVIGERDVVLGFRLLGIQHTIIAEGKDLLKKFLEVFQNPQCNIIIVSENVKNMMDKRTLRSVEISSKPLVVFIPLPGVREEETIEEMAKRILGIDIGNVLEHHHHHH | not soluble |
| MGSDKIHHHHHHMTETLLVTGAAGQLGRGVIRYLMDTHKVPPAKIIATTRNPENVADLAARGVVVRAADFNDATSLENAFKGADRVLIISTSDLDLKTGRRLKQHEAAVAAAKKAGVSHLLYTSMPNPEPVSPVLFAGDHYGTEQAIKASGIAYTIFRNGWYQENLFIALPHAIASGQWYTSAGDGRIAHGSRDDMAAAIAAGLASGSTDSKTYTLTGPQAYTTAEIAALVSEVTGKPLEVIQLPDEALTEGVKAAGVPEEFARVIVSFDANTRSGRIAMATDAVETLSGRKPRTLKQFLEANKAALAG | not soluble |
| MTEKINIQEVLVVEGKDDTANLRRFYEVDTYETRGSAITEEDLERINRLNDLRGVIVLTDPDYNGERIRKLIMAAVPTARHAFLNRNEAVPSSKSKGRSLGVEHANFEDLQKALAHVTQQYDDESYFDIRQTDLIRLGLLMASDSRKRREYLGEKLRIGYANGKQLLKRLELFGITLAEVEEVMETYEE | not soluble |
| MGSDKIHHHHHHMDTSIKKKRVRGRLLREMIEDAAFEVIEKEGLAGFSMRKLAAALGCEAMSIYHHFPSVAHLHEALVDRLVGALEMPDASLPWRQRMRIAIEDFRSIGRDHPAYATFFVTYRMNSPICLAWLNGILSLFRDGGFDTELSARLFRAVGYYLMGAVLDENAGYAKGPSAVNTVSDEQLARDFPNVMAAGRFFGTAEFDKTFELGLDMLLDEMERLRDGADAGQLSGKV | not soluble |
| LTLKNPIMVVGLPGVGLVGKLVAEHLVDELAAERIMEVYSPHFPPQVLVNKDCTVRPVSNTIYLGKANETDVLFLVGDHQSTTAQGHYELCSLYLDIAEELKVPRIYTLGGYPTGKLTYEDTVLGVANSTELIEEIKQYGVEFRESEPSGGIVGASGLLVAFSGMRGIDAACLMGMTPGYLMDPKSAQSLLKVLCNIFGIEVNTDSLKKKAEEMENILEKLKEKEEQQNLPEVKPTEEDLRYIG | not soluble |
| MGSIIFLEDRAFQGRIYGCTTDCPNLQPYFSRCNSIVVQSGCWMIYERPNYQGHQYFLRRGEYPDYQQWMGLSDSIRSCCLIPPHSGAYRMKIYDRDELRGQMSELTDDCLSVQDRFHLTEIHSLNVLEGSWILYEMPNYRGRQYLLRPGEYRRFLDWGAPNAKVGSLRRVMDLYLEHHHHHH | soluble |
| MSLEARVLTGAALEARLDEVARLRIAVFRDWPYLYEGSMDYERSYLSTYRTSPGAILVGAFDGDRLVGASTGTPMEDHAEDFAAAFARTGLPLDEIFYCAESVLLPDYRGHGMGHRFFDLREAHARALGRRHSAFCSVIRPEDHPLRPAAARSNEPFWRKRGYAPLPGVVAHYGWTDVGEERETQKPLQFWIRDL | not soluble |
| GPGSRVRDKKDMDASELELRRVQGSLNKLTDKNFDAVVEEALSPDLVLNPLVLKGAVDIIFNKAMAEPVFSGIYAQLCQRIKVYEQDLVAEAAENPTSELGQLMAAVQAGDEDQKNVNGRVRNALVKRCQEFHDSFVKQPPPRNAEAEEQLRKRNMANIKFVGELYMRSLISHRVILAVCSTALVLGFIPSPKLVTTDADLEMMVSLMNVIGKRFDENAGMALNHVPKDAAAAAHPHDTIWRALNSSMNDPRFSRRIRFLIQNLLEWRNDGWKPKESPAQGSSGGSADDSNNTT | not soluble |
| MGSDKIHHHHHHMNGGKPGVERDRREALLALAAALRPELHRYCARLMGSVIDGEDVVQDTFARAFVALDELCAVPQLRPWLFRIAHNRALDLLRSRATRVAEPIEAALEIVDDSKADAVETLMRKEAIETAVSRFAELPVVQRSVIILKDVLDEPLAEIAALLGISVDAVKAHLSRGRARLREINARTDPFPDARIASANVVRYINLFNQRDWDGLRALLAEDVRLQQSMHPPRSGAADVGMFFTIYAKSEGLWLKPAWVEGREVIAVFEHRAAPKPTHFMWLEWREGRISFIRDYRYVGYVADDARLVLASDVRSSGHGTKL | not soluble |
| MAHHHHHHMAKEVTTNHCNNSKWWKGRPYAKIPDGPAQRQAAVTISAILATAEATRLKHDNLKSTAAQAHSLAITAIKDAFYGKGETEAGDAFAYTKAEKCGRTTATGTAGAAIVEDLICLCTKGGGGQTTECYTSGPADVGKNKVGGVKVIVNDMIDHCPNISAELHLKPALITRRIAAFYAELGRQDGKKQYNKKSKNRGSGCNWMCSARS | not soluble |
| MSLEQTVDIEVQGIRGFRAVRNTDLNVNLINKEEMDGSERYQHLVTKAVDRGLRVFGYYESSVRFERKQRQGKRDLLIAHVTPGEPTKIAGTDVQIEGEAAQDENFNALRKNLPKDGVLVEHQTYDDYKTAISRLALNRGYFDGNFKISRLEISPETHQAWWRMLFDSGVRYHYGNITFSHSQIRDDYLNNILNIKSGDPYLMNNLSDLTSDFPSSNWFSSVLVQPNVNHKSKTVDVEIILYPRKKNAMELGVGFSTDGGVHGQIGWTKPWINSRGHSLRSNLYLSAPKQTLEATYRMPLLKNPLNYYYDFAVGWEGEKENDTNTRVLTLSALRYWNNAHGWQYFGGLRMRYDSFTQADITDKTLLLYPTVGFTRTRLRGGSFATWGDVQKITFDLSKRIWLSESSFIKVQASSAWVRTYAENHRVVARAEIGYLHTKGIEKIPPTLRFFAGGDRSVRGYGYKKIAPKNRNGKLVGGSRLLTTSLEYQYQVYPNWWAATFADSGLAADNYTAKELRYGTGVGVRWASPVGAIKFDIATPIRDKDNSKNIQFYIGLGTEIEGHHHHHH | not soluble |
| MLKIIRAGMYTTVQDGGRHGFRQSGISHCGALDMPALRIANLLVGNDANAPALEITLGQLTVEFETDGWFALTGAGCEARLDDNAVWTGWRLPMKAGQRLTLKRPQHGMRSYLAVAGGIDVPPVMGSCSTDLKVGIGGLEGRLLKDGDRLPIGKSKRDSMEAQGVKQLLWGNRIRALPGPEYHEFDRASQDAFWRSPWQLSSQSNRMGYRLQGQILKRTTDRELLSHGLLPGVVQVPHNGQPIVLMNDAQTTGGYPRIACIIEADMYHLAQIPLGQPIHFVQCSLEEALKARQDQQRYFEQLAWRLHNEN | soluble |
